From article PMC10170197 (Open Biology, 2023)

B1: Caprin-1, endogenous in U2OS ΔΔG3BP1/2 cells (natural protein, human (endogenous in U2OS), UniProt Q14444 1-709, looked up)
chain: MPSATSHSGSGSKSSGPPPPSGSSGSEAAAGAGAAAPASQHPATGTGAVQTEAMKQILGVIDKKLRNLEKKKGKLDDYQERMNKGERLNQDQLDAVSKYQEVTNNLEFAKELQRSFMALSQDIQKTIKKTARREQLMREEAEQKRLKTVLELQYVLDKLGDDEVRTDLKQGLNGVPILSEEELSLLDEFYKLVDPERDMSLRLNEQYEHASIHLWDLLEGKEKPVCGTTYKVLKEIVERVFQSNYFDSTHNHQNGLCEEEEAASAPAVEDQVPEAEPEPAEEYTEQSEVESTEYVNRQFMAETQFTSGEKEQVDEWTVETVEVVNSLQQQPQAASPSVPEPHSLTPVAQADPLVRRQRVQDLMAQMQGPYNFIQDSMLDFENQTLDPAIVSAQPMNPTQNMDMPQLVCPPVHSESRLAQPNQVPVQPEATQVPLVSSTSEGYTASQPLYQPSHATEQRPQKEPIDQIQATISLNTDQTTASSSLPAASQPQVFQAGTSKPLHSSGINVNAAPFQSMQTVFNMNAPVPPVNEPETLKQQNQYQASYNQSFSSQPHQVEQTELQQEQLQTVVGTYHGSPDQSHQVTGNHQQPPQQNTGFPRSNQPYYNSRGVSRGGSRGARGLMNGYRGPANGFRGGYDGYRPSFSNTPNSGYTQSQFSAPRDYSGYQRDGYQQNFKRGSGQSGPRGAPRGRGGPPRPNRGMPQMNTQQVN
notes: Caprin-1, endogenous protein detected by Western blot; source: endogenous, U2OS ΔΔG3BP1/2 lysate
B2: Caprin-1^356–386 peptide (peptide)
peptide: RQRVQDLMAQMQGPYNFIQDSMLDFENQTLD
notes: Used for co-crystallisation and as peptide ligand in nanoDSF; also called Caprin-1-derived SLiM; source: synthetic peptide

Experiments:
[1] = target: T1, GFP-G3BP1-H31YH62Y (UniProt Q13283 1-466, H31Y | H62Y); experiment: co-IP; GFP-Trap/anti-GFP beads from lysates of U2OS ΔΔG3BP1/2 cells stably expressing GFP-G3BP1-WT or mutants; EE lysis buffer; Western blot for Caprin-1 and USP10; details: partners not purified
T1 construct: G3BP1, full length, fused to GFP; source: U2OS ΔΔG3BP1/2 cells, stably transfected, in lysate
T1 sequence (Q13283 whole entry H31Y/H62Y, the tested form may be a part): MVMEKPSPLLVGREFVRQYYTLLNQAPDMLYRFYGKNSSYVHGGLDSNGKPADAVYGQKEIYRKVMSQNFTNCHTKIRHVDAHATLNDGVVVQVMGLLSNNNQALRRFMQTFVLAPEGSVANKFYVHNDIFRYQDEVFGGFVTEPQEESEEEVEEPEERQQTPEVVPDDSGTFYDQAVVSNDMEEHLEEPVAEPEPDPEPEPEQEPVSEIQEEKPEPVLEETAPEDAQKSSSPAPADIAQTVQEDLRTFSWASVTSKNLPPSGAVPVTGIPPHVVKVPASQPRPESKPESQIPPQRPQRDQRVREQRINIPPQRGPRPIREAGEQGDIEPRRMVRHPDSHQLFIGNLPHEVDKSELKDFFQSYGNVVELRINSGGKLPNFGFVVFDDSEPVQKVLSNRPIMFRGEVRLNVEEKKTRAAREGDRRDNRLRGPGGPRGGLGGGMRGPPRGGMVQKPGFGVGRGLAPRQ

[2] = target: T2, G3BP1-NTF2 (residues 1–139) (UniProt Q13283 1-139); experiment: nanoDSF (thermal shift); G3BP1-NTF2 with 10 x molar excess of peptide, 4% DMSO; neutral pH (7.4); buffers as for ITC; details: both partners purified
T2 construct: G3BP1, NTF2-like domain, residues 1–139; Purified as a dimer; also called G3BP1-NTF2-WT; NTF2-WT; source: E. coli, purified (IMAC, Superdex 75 SEC, TEV cleavage, IMAC flow-through, SEC)
T2 sequence (Q13283 1-139): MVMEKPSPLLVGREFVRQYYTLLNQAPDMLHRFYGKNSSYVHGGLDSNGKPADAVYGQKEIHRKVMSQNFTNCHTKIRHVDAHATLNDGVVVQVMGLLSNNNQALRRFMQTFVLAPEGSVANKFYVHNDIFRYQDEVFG

[3] = target: T2, G3BP1-NTF2 (residues 1–139); experiment: nanoDSF (thermal shift); G3BP1-NTF2 with 10 x molar excess of peptide, 4% DMSO; 25 mM MES pH 6.1, 150 mM NaCl, 10 mM MgCl2, 10% glycerol; details: both partners purified
[4] = target: T3, NTF2-H31YH62Y (UniProt Q13283 1-139, H31Y | H62Y); experiment: as above; details: both partners purified
T3 construct: G3BP1 NTF2-like domain (limits as the G3BP1-NTF2 construct, residues 1–139) with H31Y and H62Y; also called G3BP1-NTF2-H31YH62Y
T3 sequence (Q13283 1-139 H31Y/H62Y): as the sequence (Q13283 1-139) above, with H31Y, H62Y counted along it

[5] = target: T2, G3BP1-NTF2 (residues 1–139); experiment: nanoDSF (thermal shift); G3BP1-NTF2 with 10 x molar excess of peptide, 4% DMSO; 25 mM Na-acetate pH 5.1, 150 mM NaCl, 10 mM MgCl2, 10% glycerol; details: both partners purified

| Binder | reduction of co-precipitated Caprin-1 relative to wild-type G3BP1 [1] [%] | ΔTm (ligand-binding-induced stabilization of NTF2) [2] [°C] | ΔTm (ligand-binding-induced stabilization of NTF2) [3] [°C] | binding result [4] | ΔTm (ligand-binding-induced stabilization of NTF2) [5] [°C] |
| --- | --- | --- | --- | --- | --- |
| B1 | ~50 | – | – | – | – |
| B2 | – | 3 | 2.5 | binds | 5.5 |
